Measurements from patent publication US20090092614A1 (Biogen, published 2009).
Like-named read-outs stand apart in the source and are kept apart here.

How the values were obtained:
human INSR(28-956)-His10 [1] = target: T1, human INSR(28-956)-His10 (human, UniProt P06213 28-956); experiment: ELISA, rh-INSR coated
T1 construct: range 28-956; Bought (R&D Systems); also called rh-INSR (R&D 1544-IR); INSR-His10
Description: (§1) ELISA assays were performed to determine specific binding of the Fab fragment antibodies to soluble IGF-1R over the insulin receptor. […] Color development was stopped by addition of 4NH₂SO₄ and optical density is measured at 450 nm using a Molecular Devices plate reader and binding curves are generated.

sIGF-1R(1-903) [2] = target: T2, sIGF-1R(1-903) (human, UniProt P08069 31-933); experiment: ITC, 15 °C
T2 construct: also called soluble recombinant human IGF-1R ectodomain
Description: (§2) These protein solutions were adjusted to the concentrations listed above by dialyzing in PBS. ITC experiments were performed on an ITC200 microcalorimeter (MicroCal, LLC). […] A four minute equilibration period was used between all injections with an initial delay of 60 seconds. […] The lower limit of the protein concentrations capable of generating sufficient signal by calorimetry to measure a change in heat was ˜2-4 micromolar protein.

[3] = target: human IGF-1R (full length, on cells) (human, UniProt P08069 31-740; P08069 741-1367); experiment: cell-based or functional assay
sIGF-1R(1-903) [4] = target: T2, sIGF-1R(1-903); experiment: ITC, 25 °C
Description: as §2

human IGF-1R(1-903)-Fc [5] = target: T3, human IGF-1R(1-903)-Fc (human, UniProt P08069 31-933); experiment: blocking ELISA, competitor 640 nM IGF-2
T3 construct: Made by Biogen Idec; also called hIGF-1R-Fc; IGF-1R-Fc

sIGF-1R(1-903) [6] = target: T2, sIGF-1R(1-903); experiment: ITC, 37 °C
Description: as §2

human IGF-1R(1-903)-Fc [7] = target: T3, human IGF-1R(1-903)-Fc; experiment: blocking ELISA, competitor 320 nM IGF-1
sIGF-1R(1-903) [8] = target: T2, sIGF-1R(1-903); experiment: ITC, 5 °C
Description: as §2

hIGF-1R-Fc mutant SD015 [9] = target: T4, hIGF-1R-Fc mutant SD015 (human, UniProt P08069 31-933); experiment: SPR, Fab over captured mutant
T4 construct: Positions count without the signal peptide; also called H464E; not shown: human IgG1 Fc tag

human IGF-1R(1-903)-Fc [10] = target: T3, human IGF-1R(1-903)-Fc; experiment: competition ELISA: biotinylated hIGF-1R-Fc on streptavidin plate, M14-G11 titrated in 320 nM human IGF-1 His (blocked ligand)
human IGF-1R(1-903)-Fc [11] = target: T3, human IGF-1R(1-903)-Fc; experiment: ELISA on plate-coated soluble IGF-1R-Fc, goat anti-human kappa-HRP
Description: (§3) The absorbance was measured at 450 nm, background 540 nm for TMB using the Molecular Devices plate reader. Data was analyzed using the SOFTMAX PRO software package version 4.3 LS (Molecular Devices Corp.).

human IGF-1R(1-903)-Fc [12] = target: T3, human IGF-1R(1-903)-Fc; experiment: competition ELISA: biotinylated hIGF-1R-Fc on streptavidin plate, M14-G11 titrated in 20 nM human IGF-1 His (blocked ligand)
human IGF-1R(1-903)-Fc [13] = target: T3, human IGF-1R(1-903)-Fc; experiment: competition ELISA: biotinylated hIGF-1R-Fc on streptavidin plate, antibody titrated in 320 nM human IGF-1 His (blocked ligand), anti-His-HRP detection
human IGF-1R(1-903)-Fc [14] = target: T3, human IGF-1R(1-903)-Fc; experiment: ELISA on plate-coated soluble IGF-1R-Fc, goat anti-human kappa-HRP; remark: listed apart in the source
Description: as §3

hIGF-1R-Fc mutant SD012 = target: T5, hIGF-1R-Fc mutant SD012 (human, UniProt P08069 31-933); experiment: SPR
T5 construct: Positions count without the 30-residue signal peptide; also called E303G; not shown: human IgG1 Fc tag

hIGF-1R-Fc mutant SD008 = target: T6, hIGF-1R-Fc mutant SD008 (human, UniProt P08069 31-933); experiment: SPR
T6 construct: Positions count without the signal peptide; also called S257F; not shown: human IgG1 Fc tag

human INSR(28-956)-His10 [15] = target: T1, human INSR(28-956)-His10; experiment: ELISA on plate-coated rh-INSR, goat anti-human kappa-HRPO
Description: as §1

hIGF-1R-Fc mutant SD015 [16] = target: T4, hIGF-1R-Fc mutant SD015; experiment: KD grade of mutant hIGF-1R-Fc; S = binding to antibody was ablated by mutation
hIGF-1R-Fc mutant SD104 = target: T7, hIGF-1R-Fc mutant SD104 (human, UniProt P08069 31-933); experiment: as above
T7 construct: build as m36 with the substitution; also called H464A; not shown: C-terminal human IgG1-Fc tag and its junction

hIGF-1R-Fc mutant SD113 = target: T8, hIGF-1R-Fc mutant SD113 (human, UniProt P08069 31-933); experiment: as above
T8 construct: build as m36 with the substitutions; also called E570A I571T

hIGF-1R-Fc mutant SD102 = target: T9, hIGF-1R-Fc mutant SD102 (human, UniProt P08069 31-933); experiment: as above
T9 construct: build as m36 with the substitutions; also called E459A S460A

hIGF-1R-Fc mutant SD103 = target: T10, hIGF-1R-Fc mutant SD103 (human, UniProt P08069 31-933); experiment: as above
T10 construct: build as m36 with the substitutions; also called D461A V462T

hIGF-1R-Fc mutant SD110 = target: T11, hIGF-1R-Fc mutant SD110 (human, UniProt P08069 31-933); experiment: as above
T11 construct: build as m36 with the substitution; also called E533H; not shown: C-terminal human IgG1 Fc tag

hIGF-1R-Fc mutant SD109 = target: T12, hIGF-1R-Fc mutant SD109 (human, UniProt P08069 31-933); experiment: as above
T12 construct: build as m36 with the substitutions; also called Y482A R483W; not shown: C-terminal human IgG1-Fc tag and its junction

hIGF-1R-Fc mutant SD108 = target: T13, hIGF-1R-Fc mutant SD108 (human, UniProt P08069 31-933); experiment: as above
T13 construct: build as m36 with the substitution; also called H480E; not shown: C-terminal human IgG1-Fc tag and its junction

[17] = target: T14, human IGF-1R(1-902)-His10 (human, UniProt P08069 31-932); experiment: ELISA on plate-coated rh-IGF-1R, goat anti-human kappa-HRPO
T14 construct: Bought (R&D Systems); also called hIGF-1R-His10; IGF-1R-His
Description: as §1

T3 sequence (P08069 31-933): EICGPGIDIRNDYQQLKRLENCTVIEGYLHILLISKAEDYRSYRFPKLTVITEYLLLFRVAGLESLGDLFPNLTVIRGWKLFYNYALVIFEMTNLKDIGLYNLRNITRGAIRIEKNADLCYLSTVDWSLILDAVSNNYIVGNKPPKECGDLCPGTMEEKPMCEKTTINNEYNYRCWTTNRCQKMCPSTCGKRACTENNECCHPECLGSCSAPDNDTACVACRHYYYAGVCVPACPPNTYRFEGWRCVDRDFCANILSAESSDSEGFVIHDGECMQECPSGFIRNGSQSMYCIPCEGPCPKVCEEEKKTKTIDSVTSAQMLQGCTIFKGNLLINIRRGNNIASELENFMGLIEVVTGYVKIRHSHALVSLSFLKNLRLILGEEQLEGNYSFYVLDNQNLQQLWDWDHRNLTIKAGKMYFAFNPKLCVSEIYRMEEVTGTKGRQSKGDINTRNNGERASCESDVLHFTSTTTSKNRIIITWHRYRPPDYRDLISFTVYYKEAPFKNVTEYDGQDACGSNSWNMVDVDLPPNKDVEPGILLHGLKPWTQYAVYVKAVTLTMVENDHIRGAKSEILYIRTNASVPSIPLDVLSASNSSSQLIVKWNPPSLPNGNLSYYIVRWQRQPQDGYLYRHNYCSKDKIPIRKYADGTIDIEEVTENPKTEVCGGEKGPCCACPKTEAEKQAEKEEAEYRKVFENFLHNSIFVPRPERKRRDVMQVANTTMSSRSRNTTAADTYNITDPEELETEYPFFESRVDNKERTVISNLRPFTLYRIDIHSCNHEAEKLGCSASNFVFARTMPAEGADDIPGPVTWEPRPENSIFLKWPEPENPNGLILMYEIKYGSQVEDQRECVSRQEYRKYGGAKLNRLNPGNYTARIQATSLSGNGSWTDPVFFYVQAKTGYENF
T2 sequence (P08069 31-933): as above
T1 sequence (P06213 other isoform, or with tags, fused parts or gaps limits assumed): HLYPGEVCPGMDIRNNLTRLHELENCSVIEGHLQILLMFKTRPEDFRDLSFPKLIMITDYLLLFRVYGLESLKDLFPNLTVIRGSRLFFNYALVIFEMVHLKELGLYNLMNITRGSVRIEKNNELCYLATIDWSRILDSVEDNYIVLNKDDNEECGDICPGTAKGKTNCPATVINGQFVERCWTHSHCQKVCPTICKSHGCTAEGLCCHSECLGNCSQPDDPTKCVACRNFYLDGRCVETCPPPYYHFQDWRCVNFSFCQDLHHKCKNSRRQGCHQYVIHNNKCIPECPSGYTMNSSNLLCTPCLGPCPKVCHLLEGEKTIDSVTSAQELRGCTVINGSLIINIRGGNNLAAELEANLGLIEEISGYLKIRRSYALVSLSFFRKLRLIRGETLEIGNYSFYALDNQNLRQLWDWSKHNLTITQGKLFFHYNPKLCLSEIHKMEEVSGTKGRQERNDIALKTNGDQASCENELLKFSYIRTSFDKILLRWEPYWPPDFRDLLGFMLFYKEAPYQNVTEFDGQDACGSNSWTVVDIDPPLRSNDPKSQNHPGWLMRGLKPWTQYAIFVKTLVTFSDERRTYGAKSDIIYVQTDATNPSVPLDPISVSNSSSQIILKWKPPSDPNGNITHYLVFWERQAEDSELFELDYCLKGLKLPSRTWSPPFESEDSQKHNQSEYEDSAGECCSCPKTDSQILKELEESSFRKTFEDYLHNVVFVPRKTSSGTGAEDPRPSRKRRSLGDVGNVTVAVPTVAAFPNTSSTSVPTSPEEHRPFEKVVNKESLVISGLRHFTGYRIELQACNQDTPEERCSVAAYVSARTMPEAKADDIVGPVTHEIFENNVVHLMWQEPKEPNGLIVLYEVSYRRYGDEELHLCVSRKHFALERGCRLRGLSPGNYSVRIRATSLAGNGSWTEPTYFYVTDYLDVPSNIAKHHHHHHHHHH
T4 sequence (P08069 other isoform, or with tags, fused parts or gaps mutant): as the sequence (P08069 31-933) above, with H464E counted along it
T5 sequence (P08069 other isoform, or with tags, fused parts or gaps mutant): as the sequence (P08069 31-933) above, with E303G counted along it

B1: M12-E01 Fab (Fab, V domains shown)
VH: EVQLLESGGGLVQPGGSLRLSCAASGFTFSPYSMLWVRQAPGKGLEWVSSIGSSGGSTRYADSVKGRFTISRDNSKNTLYLQMNSLRAEDTAMYYCARVRGILHYDILIGRNLYYYYMDVWGKGTTVTVSS
VL: QYELTQPPSVSEAPRQRVTISCSGSSSNIGNNAINWYQQLPGKPPKLLIYYDDLLPSGVSDRFSGSKSGTSGSLAISGLQSEDEADYYCAAWDDNLNGVIFGGGTKLTVL
notes: Human lambda Fab from a phage library
binding result (human INSR(28-956)-His10 [1]): no binding (tested: 2 µM)

B2: M13-C06.G4.P.agly (antibody, human IgG4 S228P, kappa, V domains shown)
VH: EVQLLESGGGLVQPGGSLRLSCAASGFTFSIYRMQWVRQAPGKGLEWVSGISPSGGTTWYADSVKGRFTISRDNSKNTLYLQMNSLRAEDTAVYYCARWSGGSGYAFDIWGQGTMVTVSS
VL: DIQMTQSPLSLSASVGDRVTITCQASRDIRNYLNWYQQKPGKAPKLLIYDASSLQTGVPSRFGGSGSGTDFSFTIGSLQPEDIATYYCQQFDSLPHTFGQGTKLEIKR
notes: Aglycosylated human IgG4 (S228P, T299A, EU numbering), kappa; also called M13-C06_Ab; Eu-C06
stoichiometry of binding (N) (sIGF-1R(1-903) [2]): 0.98 | ΔH° (sIGF-1R(1-903) [2]): -14.4 kcal/mol | Inhibition of IGF-1 stimulated phosphorylation of IGF-1R (IC50 nM) [3]: < 0.13 nM | Inhibition of IGF-2 stimulated phosphorylation of IGF-1R (IC50 nM) [3]: < 0.63 nM | stoichiometry of binding (N) (sIGF-1R(1-903) [4]): 0.98 | ΔH° (sIGF-1R(1-903) [4]): -20.1 kcal/mol | % IGF-2 inhibition upon antibody saturation (human IGF-1R(1-903)-Fc [5]): 16% | stoichiometry of binding (N) (sIGF-1R(1-903) [6]): 0.97 | ΔH° (sIGF-1R(1-903) [6]): -29.2 kcal/mol | % IGF-1 inhibition upon antibody saturation (human IGF-1R(1-903)-Fc [7]): 25% | stoichiometry of binding (N) (sIGF-1R(1-903) [8]): 0.89 | ΔH° (sIGF-1R(1-903) [8]): -11.3 kcal/mol

B3: M13-C06 Fab (Fab, V domains shown)
VH: EVQLLESGGGLVQPGGSLRLSCAASGFTFSIYRMQWVRQAPGKGLEWVSGISPSGGTTWYADSVKGRFTISRDNSKNTLYLQMNSLRAEDTAVYYCARWSGGSGYAFDIWGQGTMVTVSS
VL: DIQMTQSPLSLSASVGDRVTITCQASRDIRNYLNWYQQKPGKAPKLLIYDASSLQTGVPSRFGGSGSGTDFSFTIGSLQPEDIATYYCQQFDSLPHTFGQGTKLEIK
notes: Human kappa Fab from a phage library
Biacore Relative RUmax (hIGF-1R-Fc mutant SD015 [9]): 0.04

B4: M14-G11.G4.P.agly (antibody, human IgG4 S228P, kappa, V domains shown)
VH: EVQLLESGGGLVQPGGSLRLSCAASGFTFSNYPMYWVRQAPGKGLEWVSRISSSGGRTVYADSVKGRFTISRDNSKNTLYLQMNSLRAEDTAVYYCARDRWSRSAAEYGLGGYWGQGTLVTVSS
VL: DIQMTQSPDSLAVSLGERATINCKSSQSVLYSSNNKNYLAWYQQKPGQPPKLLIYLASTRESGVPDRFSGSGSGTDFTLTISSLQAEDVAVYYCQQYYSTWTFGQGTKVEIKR
notes: Aglycosylated human IgG4 (S228P, T299A), kappa; also called M14-G11_Ab; Biotin-G11
IC50 (read off the curve) (human IGF-1R(1-903)-Fc [10]): ~6 nM | EC50 (read off the curve) (human IGF-1R(1-903)-Fc [11]): ~0.05 nM | stoichiometry of binding (N) (sIGF-1R(1-903) [4]): 0.91 | ΔH° (sIGF-1R(1-903) [4]): -26.6 kcal/mol | IC50 (read off the curve) (human IGF-1R(1-903)-Fc [12]): ~2000 pM | IC50 (read off the curve) (human IGF-1R(1-903)-Fc [13]): ~6 nM | % IGF-2 inhibition upon antibody saturation (human IGF-1R(1-903)-Fc [5]): 1% | stoichiometry of binding (N) (sIGF-1R(1-903) [6]): 0.7 | ΔH° (sIGF-1R(1-903) [6]): -39.5 kcal/mol | % IGF-1 inhibition upon antibody saturation (human IGF-1R(1-903)-Fc [7]): 1% | stoichiometry of binding (N) (sIGF-1R(1-903) [8]): 0.9 | ΔH° (sIGF-1R(1-903) [8]): -6.7 kcal/mol

B5: M14-G11.G4.P (antibody, human IgG4, V domains shown)
VH: EVQLLESGGGLVQPGGSLRLSCAASGFTFSNYPMYWVRQAPGKGLEWVSRISSSGGRTVYADSVKGRFTISRDNSKNTLYLQMNSLRAEDTAVYYCARDRWSRSAAEYGLGGYWGQGTLVTVSS
VL: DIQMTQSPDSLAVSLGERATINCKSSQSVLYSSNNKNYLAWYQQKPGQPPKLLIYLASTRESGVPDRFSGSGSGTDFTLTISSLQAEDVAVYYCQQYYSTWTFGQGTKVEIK
notes: Full-length human IgG4.P, kappa; also called M14.G11.P; G4 version of M14-G11
EC50 (read off the curve) (human IGF-1R(1-903)-Fc [14]): ~0.05 nM

B6: M14-G11 Fab (Fab, V domains shown)
VH: EVQLLESGGGLVQPGGSLRLSCAASGFTFSNYPMYWVRQAPGKGLEWVSRISSSGGRTVYADSVKGRFTISRDNSKNTLYLQMNSLRAEDTAVYYCARDRWSRSAAEYGLGGYWGQGTLVTVSS
VL: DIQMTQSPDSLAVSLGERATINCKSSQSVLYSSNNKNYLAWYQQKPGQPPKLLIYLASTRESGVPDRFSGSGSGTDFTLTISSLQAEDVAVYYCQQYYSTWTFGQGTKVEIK
notes: Human kappa Fab (phage library, or papain digest of the full-length antibody)
fold loss in affinity against wild type (hIGF-1R-Fc mutant SD012): ~3 fold | fold loss in affinity against wild type (hIGF-1R-Fc mutant SD008): ~3 fold

B7: M12-G04 Fab (Fab, V domains shown)
VH: EVQLLESGGGLVQPGGSLRLSCAASGFTFSKYTMHWVRQAPGKGLEWVSSIVSSGGWTDYADSVKGRFTISRDNSKNTLYLQMNSLRAEDTAVYYCARDRSIAAAGTGWSVSFVDWFDPWGQGTLVTVSS
VL: DIQMTQSPLSLSASVGDRVTITCRASQSINGYLNWYQQKPGKAPNLLIYATSSLQSGVPSRFSGSGSGTDFTLTISSLQPEDFATYYCQQSYSTPPYTFGQGTKLEIK
notes: as for B3
binding result (human INSR(28-956)-His10 [15]): no binding (tested: about 5000 nM (baseline markers overlap))

B8: M14-C03.G4.P.agly (antibody, human IgG4 S228P, kappa, V domains shown)
VH: EVQLLESGGGLVQPGGSLRLSCAASGFTFSKYMMSWVRQAPGKGLEWVSYISPSGGLTWYADSVKGRFTISRDNSKNTLYLQMNSLRAEDTAVYYCARDGARGYGMDVWGQGTTVTVSS
VL: DIQMTQSPATLSLSPGERATLSCRASQSVSSYLAWYQQKPGQAPRLLIYDASNRATGIPARFSGSGSGTDFTLTISSLEPEDFAVYYCQQRSNWPPEVTFGPGTKVDIKR
notes: Aglycosylated human IgG4 (S228P, T299A), kappa; also called M14-C03_Ab
% IGF-2 inhibition upon antibody saturation (human IGF-1R(1-903)-Fc [5]): 21% | binding result (hIGF-1R-Fc mutant SD015 [16]): no binding | binding result (hIGF-1R-Fc mutant SD104): no binding | binding result (hIGF-1R-Fc mutant SD113): no binding | binding result (hIGF-1R-Fc mutant SD102): no binding | binding result (hIGF-1R-Fc mutant SD103): no binding | binding result (hIGF-1R-Fc mutant SD110): no binding | binding result (hIGF-1R-Fc mutant SD109): no binding | binding result (hIGF-1R-Fc mutant SD108): no binding | % IGF-1 inhibition upon antibody saturation (human IGF-1R(1-903)-Fc [7]): 19%

B9: M14-B01 Fab (Fab, V domains shown)
VH: EVQLLESGGGLVQPGGSLRLSCAASGFTFSNYHMAWVRQAPGKGLEWVSVISPTGGRTTYADSVKGRFTISRDNSKNTLYLQMNSLRAEDTATYYCARAGYSYGYGYFDYWGQGTLVTVSS
VL: DIQMTQFPATLSVSPGERATLSCRASQSVMRNLAWYQQKPGQPPRLLIYGASKRATGIPARFSGSGSGTAFTLTISNLEPEDFAVYYCHQRSTWPLGTFGPGTKLEAK
notes: as for B3
EC50 (read off the curve) [17]: ~5 nM | binding result (human INSR(28-956)-His10 [15]): no binding
